In paper PMC6277039 (Biochemical and biophysical research communications, 2018):
Several values for one entry are separate records, joined by “and”; a condition that tells them apart may be missing. Equal entries are not always repeated.

Experiments:
Test in all cases: ITC
[1] = target: HSPA1A S16P (human, UniProt P0DMV8 1-641, S16P)
[2] = target: HSPA1A I74T (human, UniProt P0DMV8 1-641, I74T)
[3] = target: HSPA1A K71A (human, UniProt P0DMV8 1-641, K71A)
[4] = target: HSPA1A F592S (human, UniProt P0DMV8 1-641, F592S)
[5] = target: HSPA1A R36C (human, UniProt P0DMV8 1-641, R36C)
[6] = target: HSPA1A S16Y (human, UniProt P0DMV8 1-641, S16Y)
[7] = target: HSPA1A wild-type (WT) (human, UniProt P0DMV8 1-641)
[8] = target: HSPA1A I480N (human, UniProt P0DMV8 1-641, I480N)
Chain of HSPA1A I480N (P0DMV8 whole entry I480N): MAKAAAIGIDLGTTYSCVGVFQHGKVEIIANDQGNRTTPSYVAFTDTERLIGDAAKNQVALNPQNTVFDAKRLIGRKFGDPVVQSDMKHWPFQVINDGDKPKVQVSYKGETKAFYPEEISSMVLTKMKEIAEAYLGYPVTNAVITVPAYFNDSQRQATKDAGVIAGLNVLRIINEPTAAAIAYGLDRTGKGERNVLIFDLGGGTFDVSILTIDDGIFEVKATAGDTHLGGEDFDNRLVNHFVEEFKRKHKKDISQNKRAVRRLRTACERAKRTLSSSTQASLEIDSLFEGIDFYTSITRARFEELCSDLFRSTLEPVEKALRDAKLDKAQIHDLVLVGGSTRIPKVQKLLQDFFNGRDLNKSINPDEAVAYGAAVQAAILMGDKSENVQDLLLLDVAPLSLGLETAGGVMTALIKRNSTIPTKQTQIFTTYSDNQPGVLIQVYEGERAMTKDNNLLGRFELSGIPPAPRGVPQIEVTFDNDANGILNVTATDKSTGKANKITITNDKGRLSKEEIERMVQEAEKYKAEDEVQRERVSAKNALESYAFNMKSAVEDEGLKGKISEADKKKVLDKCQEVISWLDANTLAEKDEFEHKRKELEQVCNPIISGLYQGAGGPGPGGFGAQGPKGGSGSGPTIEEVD

Chain of HSPA1A R36C (P0DMV8 whole entry R36C): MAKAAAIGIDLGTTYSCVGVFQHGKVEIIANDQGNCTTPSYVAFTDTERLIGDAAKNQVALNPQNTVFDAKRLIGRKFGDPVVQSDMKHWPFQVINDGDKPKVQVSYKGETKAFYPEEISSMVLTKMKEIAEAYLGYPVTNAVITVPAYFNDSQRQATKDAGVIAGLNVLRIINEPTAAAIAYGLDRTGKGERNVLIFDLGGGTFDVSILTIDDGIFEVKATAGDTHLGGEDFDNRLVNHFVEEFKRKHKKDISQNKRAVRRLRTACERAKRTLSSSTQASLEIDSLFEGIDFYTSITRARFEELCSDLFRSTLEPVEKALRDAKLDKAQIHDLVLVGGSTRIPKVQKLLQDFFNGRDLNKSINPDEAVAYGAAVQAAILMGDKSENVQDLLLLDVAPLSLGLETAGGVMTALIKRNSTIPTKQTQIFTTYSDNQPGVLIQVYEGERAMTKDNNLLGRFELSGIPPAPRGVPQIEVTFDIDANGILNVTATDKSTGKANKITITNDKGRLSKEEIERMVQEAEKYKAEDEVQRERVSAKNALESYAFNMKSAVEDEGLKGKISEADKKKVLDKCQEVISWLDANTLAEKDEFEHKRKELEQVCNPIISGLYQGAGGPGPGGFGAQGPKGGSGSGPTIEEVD
Chain of HSPA1A S16Y (P0DMV8 whole entry S16Y): as the sequence (P0DMV8 whole entry R36C) above, with S16Y, C36R counted along it
Chain of HSPA1A F592S (P0DMV8 whole entry F592S): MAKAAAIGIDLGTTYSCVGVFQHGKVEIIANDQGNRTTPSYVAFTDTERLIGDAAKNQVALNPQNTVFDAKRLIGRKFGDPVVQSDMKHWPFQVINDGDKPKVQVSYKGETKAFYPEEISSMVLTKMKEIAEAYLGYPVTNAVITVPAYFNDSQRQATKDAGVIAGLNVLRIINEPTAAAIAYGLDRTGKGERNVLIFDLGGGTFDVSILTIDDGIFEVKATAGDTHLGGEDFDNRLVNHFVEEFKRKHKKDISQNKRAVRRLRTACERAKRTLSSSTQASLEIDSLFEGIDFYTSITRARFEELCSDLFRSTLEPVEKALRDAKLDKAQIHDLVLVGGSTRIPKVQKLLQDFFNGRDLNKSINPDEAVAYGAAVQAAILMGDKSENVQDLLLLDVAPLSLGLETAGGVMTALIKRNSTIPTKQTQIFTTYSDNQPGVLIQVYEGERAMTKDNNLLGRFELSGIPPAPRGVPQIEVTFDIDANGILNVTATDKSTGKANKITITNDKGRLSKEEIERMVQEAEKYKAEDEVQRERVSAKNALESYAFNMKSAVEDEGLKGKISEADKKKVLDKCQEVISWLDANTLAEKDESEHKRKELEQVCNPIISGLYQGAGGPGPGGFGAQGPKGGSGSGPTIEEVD
Chain of HSPA1A wild-type (WT) (P0DMV8 whole entry): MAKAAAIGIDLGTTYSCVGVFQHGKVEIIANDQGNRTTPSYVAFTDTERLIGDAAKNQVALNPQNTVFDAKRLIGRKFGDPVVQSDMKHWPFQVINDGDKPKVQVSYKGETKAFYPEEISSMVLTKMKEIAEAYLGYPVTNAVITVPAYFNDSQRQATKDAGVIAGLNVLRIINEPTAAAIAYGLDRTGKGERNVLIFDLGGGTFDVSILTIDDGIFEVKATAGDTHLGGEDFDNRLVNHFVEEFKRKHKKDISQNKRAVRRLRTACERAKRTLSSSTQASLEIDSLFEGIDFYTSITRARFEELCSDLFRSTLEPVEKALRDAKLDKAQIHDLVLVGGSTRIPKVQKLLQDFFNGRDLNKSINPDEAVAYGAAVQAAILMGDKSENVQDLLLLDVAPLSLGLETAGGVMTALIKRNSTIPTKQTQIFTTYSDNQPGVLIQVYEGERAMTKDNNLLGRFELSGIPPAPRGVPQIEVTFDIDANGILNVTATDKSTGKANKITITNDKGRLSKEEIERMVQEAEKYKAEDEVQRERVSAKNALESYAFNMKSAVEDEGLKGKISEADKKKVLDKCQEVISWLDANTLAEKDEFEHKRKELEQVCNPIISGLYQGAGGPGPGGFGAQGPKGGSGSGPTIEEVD
Chain of HSPA1A K71A (P0DMV8 whole entry K71A): as the sequence (P0DMV8 whole entry R36C) above, with C36R, K71A counted along it
Chain of HSPA1A S16P (P0DMV8 whole entry S16P): as the sequence (P0DMV8 whole entry R36C) above, with S16P, C36R counted along it
Chain of HSPA1A I74T (P0DMV8 whole entry I74T): as the sequence (P0DMV8 whole entry R36C) above, with C36R, I74T counted along it

Kd [1]: 738 nM and 679 nM and 599 nM
dH [1]: -2.98 kcal/mol and -3.21 kcal/mol and -3.22 kcal/mol
stoichiometry N [1]: 0.991 and 1 and 1.03
Kd [2]: 999 nM and 995 nM and 935 nM
dH [2]: -4.52 kcal/mol and -4.7 kcal/mol and -4.85 kcal/mol
stoichiometry N [2]: 0.998 and 0.985 and 1.01
Kd [3]: 528 nM and 615 nM and 635 nM
dH [3]: -2.77 kcal/mol and -3.32 kcal/mol and -2.86 kcal/mol
stoichiometry N [3]: 0.982 and 1 and 0.989
Kd [4]: 559 nM and 500 nM and 374 nM
dH [4]: -3.84 kcal/mol and -4.67 kcal/mol and -3.66 kcal/mol
stoichiometry N [4]: 1.07 and 1.04 and 1.06
Kd [5]: 576 nM and 472 nM and 509 nM
dH [5]: -3.75 kcal/mol and -3.81 kcal/mol and -3.88 kcal/mol
stoichiometry N [5]: 1.03 and 1 and 0.984
Kd [6]: 335 nM and 331 nM and 315 nM
dH [6]: -10.2 kcal/mol and -9.96 kcal/mol and -9.74 kcal/mol
stoichiometry N [6]: 1.04 and 1.02 and 1.01
Kd [7]: 335 nM and 529 nM and 364 nM
dH [7]: -6.18 kcal/mol and -4.72 kcal/mol and -4.79 kcal/mol
stoichiometry N [7]: 0.993 and 1 and 1.02
Kd [8]: 710 nM and 661 nM and 697 nM
dH [8]: -4.43 kcal/mol and -5.06 kcal/mol and -4.72 kcal/mol
stoichiometry N [8]: 1.02 (2×) and 1.01
B1: protein substrate (peptide NIVAKKK) (peptide)
peptide: NIVAKKK
